From the supplement of paper PMC10065799, “High-throughput profiling of sequence recognition by tyrosine kinases and SH2 domains using bacterial peptide display” (eLife, 2023)

Tests used:
[1] = target: SHP2-C SH2; assay: SH2 binding enrichment of the phosphorylated peptide, bacterial display (enrichment ratio); higher = better substrate or ligand; peptides without Tyr show the background
[2] = target: Grb2 SH2 (UniProt P62993); assay: as above
[3] = target: c-Src SH2; assay: as above
[4] = target: FGFR3 (UniProt P22607); assay: phosphorylation enrichment, bacterial display (enrichment ratio); higher = better substrate or ligand; peptides without Tyr show the background
[5] = target: Jak2 (UniProt O60674); assay: as above
[6] = system: AncSZ; assay: as above
[7] = system: Fer (mouse); assay: as above
[8] = target: EPHB2 (UniProt P29323); assay: as above
[9] = target: Hck (UniProt P08631); assay: as above
[10] = system: c-Src; assay: as above
[11] = target: EPHB1 (UniProt P54762); assay: as above
[12] = target: FGFR1 (UniProt P11362); assay: as above
[13] = target: Fes (UniProt P07332); assay: as above
[14] = target: MERTK (UniProt Q12866); assay: as above
[15] = system: c-Abl (mouse); assay: as above
[16] = target: Fyn (UniProt P06241); assay: as above
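For SH2 binding enrichment of the phosphorylated peptide, bacterial display in this document: peptide library displayed on the E. coli surface as eCPX fusions, selected cells deep-sequenced, score is each peptide's frequency after selection divided by its frequency in the input.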
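For phosphorylation enrichment, bacterial display in this document: 11-residue human phosphosite peptides and single-mutation variants displayed on the E. coli surface, counted by deep sequencing, each peptide's frequency after selection divided by its frequency in the unselected input library; frequency after pTyr selection over input frequency; kinase dosed for 20-30% of maximal phosphorylation in three min.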

Chain of EPHB2 (P29323 whole entry, looked up): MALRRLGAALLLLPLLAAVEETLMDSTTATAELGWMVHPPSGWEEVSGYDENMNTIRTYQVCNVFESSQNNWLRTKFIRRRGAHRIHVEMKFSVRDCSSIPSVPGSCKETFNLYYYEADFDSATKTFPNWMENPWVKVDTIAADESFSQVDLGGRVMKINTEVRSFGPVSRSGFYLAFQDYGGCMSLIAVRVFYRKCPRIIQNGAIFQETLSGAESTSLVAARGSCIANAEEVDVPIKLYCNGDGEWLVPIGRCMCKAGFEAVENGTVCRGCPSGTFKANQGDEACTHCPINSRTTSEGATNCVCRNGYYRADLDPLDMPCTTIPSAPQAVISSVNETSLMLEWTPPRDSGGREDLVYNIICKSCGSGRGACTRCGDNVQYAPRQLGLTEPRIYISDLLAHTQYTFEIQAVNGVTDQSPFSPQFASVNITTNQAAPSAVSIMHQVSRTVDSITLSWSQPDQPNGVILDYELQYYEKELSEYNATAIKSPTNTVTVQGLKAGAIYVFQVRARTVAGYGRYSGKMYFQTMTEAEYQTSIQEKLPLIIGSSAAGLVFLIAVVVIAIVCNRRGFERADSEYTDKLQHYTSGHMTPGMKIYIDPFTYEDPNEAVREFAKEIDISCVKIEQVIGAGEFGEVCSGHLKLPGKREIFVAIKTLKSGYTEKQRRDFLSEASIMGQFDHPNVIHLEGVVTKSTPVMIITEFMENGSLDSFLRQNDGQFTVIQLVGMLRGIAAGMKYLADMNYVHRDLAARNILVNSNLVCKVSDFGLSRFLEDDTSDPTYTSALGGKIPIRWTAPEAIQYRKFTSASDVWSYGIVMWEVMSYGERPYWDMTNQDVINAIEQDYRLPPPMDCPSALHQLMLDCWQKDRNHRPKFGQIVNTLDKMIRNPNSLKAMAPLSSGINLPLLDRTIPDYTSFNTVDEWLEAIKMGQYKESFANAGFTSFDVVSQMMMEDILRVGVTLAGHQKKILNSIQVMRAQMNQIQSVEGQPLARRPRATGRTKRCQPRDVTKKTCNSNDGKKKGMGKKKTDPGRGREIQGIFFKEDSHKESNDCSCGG
Chain of FGFR1 (P11362 whole entry, looked up): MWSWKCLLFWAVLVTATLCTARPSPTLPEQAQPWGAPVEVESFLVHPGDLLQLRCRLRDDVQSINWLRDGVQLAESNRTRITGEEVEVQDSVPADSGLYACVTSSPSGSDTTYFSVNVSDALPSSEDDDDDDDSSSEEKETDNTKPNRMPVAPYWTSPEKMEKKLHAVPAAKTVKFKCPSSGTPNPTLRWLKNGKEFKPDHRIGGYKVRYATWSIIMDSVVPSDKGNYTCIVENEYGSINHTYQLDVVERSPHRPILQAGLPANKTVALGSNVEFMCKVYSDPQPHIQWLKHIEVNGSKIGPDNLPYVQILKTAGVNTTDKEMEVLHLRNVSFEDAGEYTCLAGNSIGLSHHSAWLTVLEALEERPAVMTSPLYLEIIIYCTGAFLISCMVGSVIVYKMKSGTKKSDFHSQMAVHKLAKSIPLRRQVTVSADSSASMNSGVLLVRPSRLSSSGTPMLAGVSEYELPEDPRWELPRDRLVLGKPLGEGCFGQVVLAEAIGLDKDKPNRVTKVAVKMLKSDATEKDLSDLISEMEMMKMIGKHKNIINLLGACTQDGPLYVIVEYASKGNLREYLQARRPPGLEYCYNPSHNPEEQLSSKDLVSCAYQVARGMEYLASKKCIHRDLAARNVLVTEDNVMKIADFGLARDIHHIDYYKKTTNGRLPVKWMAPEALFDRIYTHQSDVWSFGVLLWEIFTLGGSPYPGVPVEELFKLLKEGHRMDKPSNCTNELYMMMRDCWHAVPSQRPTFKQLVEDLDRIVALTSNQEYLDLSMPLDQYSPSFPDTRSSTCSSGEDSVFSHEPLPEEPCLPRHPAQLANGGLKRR
Chain of Fyn (P06241 whole entry, looked up, the tested form may be a part): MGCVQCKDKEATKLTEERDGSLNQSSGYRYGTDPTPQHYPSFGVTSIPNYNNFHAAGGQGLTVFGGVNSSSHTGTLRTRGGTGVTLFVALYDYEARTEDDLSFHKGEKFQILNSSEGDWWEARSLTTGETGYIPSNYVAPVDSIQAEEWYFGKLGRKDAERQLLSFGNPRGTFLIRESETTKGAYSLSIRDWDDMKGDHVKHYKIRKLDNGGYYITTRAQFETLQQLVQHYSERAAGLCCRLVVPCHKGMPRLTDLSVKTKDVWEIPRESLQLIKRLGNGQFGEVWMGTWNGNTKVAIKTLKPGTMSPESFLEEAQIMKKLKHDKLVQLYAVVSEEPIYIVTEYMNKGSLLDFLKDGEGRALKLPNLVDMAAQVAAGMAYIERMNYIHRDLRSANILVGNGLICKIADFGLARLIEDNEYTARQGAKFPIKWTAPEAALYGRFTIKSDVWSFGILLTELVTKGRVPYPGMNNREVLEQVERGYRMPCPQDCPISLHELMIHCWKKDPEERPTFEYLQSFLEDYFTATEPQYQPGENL
Chain of FGFR3 (P22607 whole entry, looked up): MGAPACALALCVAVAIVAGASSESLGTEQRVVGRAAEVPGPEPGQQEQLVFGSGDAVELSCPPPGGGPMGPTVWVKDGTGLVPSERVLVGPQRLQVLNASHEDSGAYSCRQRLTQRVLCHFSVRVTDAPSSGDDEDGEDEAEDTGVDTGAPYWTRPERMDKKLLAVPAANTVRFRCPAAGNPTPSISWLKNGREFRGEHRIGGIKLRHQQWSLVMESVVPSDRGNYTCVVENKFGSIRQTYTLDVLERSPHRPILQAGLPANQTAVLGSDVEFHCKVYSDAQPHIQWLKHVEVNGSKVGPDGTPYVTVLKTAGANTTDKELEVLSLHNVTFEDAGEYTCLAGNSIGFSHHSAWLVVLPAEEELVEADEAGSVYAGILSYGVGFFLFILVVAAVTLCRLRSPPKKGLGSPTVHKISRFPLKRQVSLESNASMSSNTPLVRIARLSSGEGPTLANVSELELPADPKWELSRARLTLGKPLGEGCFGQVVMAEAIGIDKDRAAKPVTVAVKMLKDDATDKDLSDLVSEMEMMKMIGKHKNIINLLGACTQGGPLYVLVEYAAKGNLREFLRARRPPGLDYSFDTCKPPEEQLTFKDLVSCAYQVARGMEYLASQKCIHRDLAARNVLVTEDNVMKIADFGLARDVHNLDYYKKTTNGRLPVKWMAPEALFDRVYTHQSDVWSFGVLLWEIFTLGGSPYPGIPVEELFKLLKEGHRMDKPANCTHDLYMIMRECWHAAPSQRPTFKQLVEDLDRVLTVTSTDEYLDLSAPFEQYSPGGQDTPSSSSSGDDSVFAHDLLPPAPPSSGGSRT
Chain of EPHB1 (P54762 whole entry, looked up): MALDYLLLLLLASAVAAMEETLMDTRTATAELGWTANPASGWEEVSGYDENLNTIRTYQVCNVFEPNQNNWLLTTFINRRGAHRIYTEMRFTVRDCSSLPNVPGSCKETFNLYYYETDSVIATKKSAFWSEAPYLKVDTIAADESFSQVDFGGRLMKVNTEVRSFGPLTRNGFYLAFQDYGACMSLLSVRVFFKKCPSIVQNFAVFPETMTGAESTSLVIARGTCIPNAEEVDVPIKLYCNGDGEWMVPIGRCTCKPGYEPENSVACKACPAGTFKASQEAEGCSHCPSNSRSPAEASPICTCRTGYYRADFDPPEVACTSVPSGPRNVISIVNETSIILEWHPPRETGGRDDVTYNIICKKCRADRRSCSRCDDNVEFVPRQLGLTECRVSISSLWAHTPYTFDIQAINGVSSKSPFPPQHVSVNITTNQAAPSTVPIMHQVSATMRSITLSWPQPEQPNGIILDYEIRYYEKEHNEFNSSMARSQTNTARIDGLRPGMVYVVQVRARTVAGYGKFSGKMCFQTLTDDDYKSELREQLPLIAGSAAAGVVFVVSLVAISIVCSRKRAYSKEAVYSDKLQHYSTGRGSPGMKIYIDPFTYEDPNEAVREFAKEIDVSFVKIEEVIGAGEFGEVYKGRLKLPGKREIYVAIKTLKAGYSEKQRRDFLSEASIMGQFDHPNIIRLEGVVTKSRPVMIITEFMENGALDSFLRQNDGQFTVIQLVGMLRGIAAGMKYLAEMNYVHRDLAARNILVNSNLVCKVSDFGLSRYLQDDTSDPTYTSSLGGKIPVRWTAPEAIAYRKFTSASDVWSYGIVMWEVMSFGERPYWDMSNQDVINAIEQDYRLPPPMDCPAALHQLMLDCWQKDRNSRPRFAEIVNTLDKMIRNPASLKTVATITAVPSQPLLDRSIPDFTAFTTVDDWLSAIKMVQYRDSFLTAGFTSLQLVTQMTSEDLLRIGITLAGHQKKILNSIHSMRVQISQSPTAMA
Chain of Hck (P08631 whole entry, looked up): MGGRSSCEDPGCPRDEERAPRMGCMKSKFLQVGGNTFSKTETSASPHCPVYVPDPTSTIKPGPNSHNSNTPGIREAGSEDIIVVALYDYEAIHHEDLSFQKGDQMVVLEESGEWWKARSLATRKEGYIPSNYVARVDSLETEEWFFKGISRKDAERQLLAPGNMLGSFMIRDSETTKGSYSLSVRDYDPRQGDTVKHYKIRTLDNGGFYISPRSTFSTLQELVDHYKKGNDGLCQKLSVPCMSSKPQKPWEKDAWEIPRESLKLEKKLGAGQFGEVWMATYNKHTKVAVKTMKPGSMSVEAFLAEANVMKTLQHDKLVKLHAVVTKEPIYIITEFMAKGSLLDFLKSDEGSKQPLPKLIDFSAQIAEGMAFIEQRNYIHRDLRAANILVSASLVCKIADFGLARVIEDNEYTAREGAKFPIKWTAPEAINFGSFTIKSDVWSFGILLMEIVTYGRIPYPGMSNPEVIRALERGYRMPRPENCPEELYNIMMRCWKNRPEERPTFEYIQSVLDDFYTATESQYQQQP

Sequence | SH2 binding enrichment [1] | SH2 binding enrichment [2] | SH2 binding enrichment [3] | phosphorylation enrichment [4] | phosphorylation enrichment [5] | phosphorylation enrichment [6] | phosphorylation enrichment [7] | phosphorylation enrichment [8] | phosphorylation enrichment [9] | phosphorylation enrichment [10] | phosphorylation enrichment [11] | phosphorylation enrichment [12] | phosphorylation enrichment [13] | phosphorylation enrichment [14] | phosphorylation enrichment [15] | phosphorylation enrichment [16]
PGGKIYISPLK [RB1_Y805_N803K] | 1.12 | 0.933 | 0.776 | 0.583 | 0.72 | 0.598 | 0.441 | 0.763 | 0.456 | 0.422 | 0.361 | 0.45 | 0.794 | 0.461 | 1.17 | 0.513
SARFRYLMAEK [LDHB_Y173] | 0.508 | 0.952 | 0.543 | 0.469 | 0.692 | 0.695 | 0.348 | 0.467 | 0.435 | 0.436 | 0.436 | 0.352 | 0.652 | 0.397 | 0.566 | 0.365
RFVTRSIFNRE [HLA-DQB1_Y62_Y62S_YF] | 0.588 | 0.72 | 0.39 | 0.711 | 0.723 | 1.14 | 0.652 | 0.718 | 0.632 | 0.578 | 0.61 | 0.472 | 0.827 | 0.577 | 0.402 | 0.498
CSSPTYRDCLQ [LARGE2_Y682_R677C] | 1.15 | 0.94 | 1 | 0.738 | 0.846 | 0.812 | 0.408 | 0.436 | 0.473 | 0.484 | 0.5 | 0.49 | 0.892 | 0.37 | 0.503 | 0.402
LKRCQYVTEKV [ALDOA_Y204] | 0.654 | 0.742 | 0.53 | 0.924 | 2.26 | 1.59 | 0.794 | 0.89 | 0.689 | 0.796 | 1.9 | 1.11 | 1.75 | 0.672 | 1.24 | 0.823
IHYPPYTDWNQ [ALDH3B2_Y365] | 0.71 | 0.883 | 1.25 | 0.881 | 0.736 | 0.889 | 2.21 | 0.676 | 0.655 | 0.573 | 0.527 | 1.14 | 0.933 | 0.429 | 0.938 | 0.512
YDEYRYRSFIK [CFTR_Y517_V520F] | 0.849 | 0.901 | 1.21 | 0.679 | 1.14 | 1.06 | 0.64 | 0.596 | 1.51 | 1.62 | 0.54 | 0.495 | 0.946 | 0.518 | 0.957 | 2.33
TTKAKYKTPIY [PLD2_Y573_T577I] | 0.775 | 0.908 | 0.793 | 0.596 | 0.587 | 0.823 | 0.459 | 0.46 | 0.789 | 0.541 | 0.542 | 0.46 | 0.928 | 0.574 | 0.695 | 0.771
DLFRLYICVKE [ARID1B_Y1091_V1092I] | 0.521 | 0.744 | 0.384 | 1 | 1.45 | 1.19 | 0.591 | 0.715 | 0.572 | 0.499 | 0.741 | 0.471 | 1.61 | 0.391 | 0.997 | 0.456
QLQTTYPSSDN [MAX_Y115_N114T] | 0.73 | 0.921 | 0.448 | 0.626 | 0.853 | 0.773 | 0.789 | 0.48 | 0.474 | 0.556 | 0.445 | 0.433 | 0.752 | 0.357 | 0.566 | 0.35

Now from value to sequence, other results behind:

SH2 binding enrichment [1] | SH2 binding enrichment [2] | SH2 binding enrichment [3] | Sequence | phosphorylation enrichment [4] | phosphorylation enrichment [5] | phosphorylation enrichment [6] | phosphorylation enrichment [7] | phosphorylation enrichment [8] | phosphorylation enrichment [9] | phosphorylation enrichment [10] | phosphorylation enrichment [11] | phosphorylation enrichment [12] | phosphorylation enrichment [13] | phosphorylation enrichment [14] | phosphorylation enrichment [15] | phosphorylation enrichment [16]
1.17 | 1.65 | 1.19 | IHADIYRWFNI [MARS1_Y344] | 6.99 | 1.12 | 1.22 | 8.95 | 0.6 | 2.14 | 3.77 | 0.716 | 9.43 | 1.42 | 5 | 6.74 | 2.23
0.57 | 0.544 | 0.327 | RRGMPYGGCGD [TGM1_Y312_R315C] | 0.573 | 0.5 | 0.782 | 0.409 | 0.486 | 0.659 | 0.486 | 0.551 | 0.634 | 0.489 | 0.454 | 0.595 | 0.522
0.724 | 0.654 | 0.536 | GPQGVYSNKLV [PTPN14_Y506] | 0.51 | 0.544 | 0.568 | 0.407 | 0.502 | 0.588 | 0.636 | 0.417 | 0.472 | 0.642 | 0.519 | 0.537 | 0.633
0.699 | 0.933 | 0.467 | HSLRDYKEALM [ADA2_Y337_H335R] | 0.881 | 1.03 | 0.746 | 0.44 | 0.45 | 0.679 | 0.56 | 0.775 | 0.601 | 1.4 | 0.649 | 0.751 | 0.388
0.594 | 0.74 | 0.492 | PIQLFYTRRNT [GHR_Y86] | 0.884 | 0.713 | 1.18 | 0.913 | 0.775 | 0.957 | 0.919 | 0.766 | 0.982 | 1.13 | 0.691 | 0.738 | 0.938
